Measured values reported in paper PMC5894356 (Structure (London, England : 1993), 2018).

Target: the molecule itself
Assay: crystal structure

B1: S. cerevisiae 5-aminolevulinic acid synthase (Hem1), PLP-cleaved ALAS 58-548 (enzyme)
chain: not shown
- stoichiometry N: 2
